Data on three molecules can be found in paper PMC7881012, “Human ACE2 peptide-mimics block SARS-CoV-2 pulmonary cells infection” (Communications Biology, 2021).

B1: P10 (designed binder)
peptide: SALEEQYKTFLDKFMHELEDLLYQLAL
notes: also called peptide P10; source: synthetic peptide (solid-phase synthesis on rink amide resin, HPLC purified)

Ends that are not written are not given here.

This test concerns the target T1, Fc-tagged 2019-nCoV RBD-SD1 (SARS-CoV-2 (2019-nCoV), UniProt P0DTC2 319-591).
T1 construct: source: bought: Sanyou Biopharmaceuticals Co. Ltd
Kind of test: BLI. Particulars: both partners purified.
For orientation: Kd means a measure of binding affinity in units of concentration. Read a high Kd as a looser complex. In the case of B1, the Kd is 0.03 ± 0.01 nM.
As to SALEEQYKTFLDKFMHELEDLLYQLSL (designed binder, also called peptide P9) [P9], the Kd came to 0.09 ± 0.08 nM.
In turn, SALEEQLKTFLDKFMHELEDLLYQLAL-NH2 (designed binder, also called peptide P8) [P8] came in with a Kd of 24 ± 11 nM.
